The values that follow come from patent US20210403579A1 (DELINIA, published 2021).

Substitutions are numbered along the chain they refer to.

As usually defined, the Kd is the free concentration of one partner at which half of the binding sites on the other are occupied at equilibrium, for simple one-to-one binding. A lower Kd goes with a tighter complex. The term koff denotes a measure of how fast the partners let go of each other. The low end stands for a long-lived complex, the high end for a short-lived complex. In general, kon refers to the second-order rate constant of association.

B1: Human ST2 IgG1 Antibody 109 (antibody, V domains shown)
VH: QVQLVQSGAEVKKPGSSVKVSCKASGYRFTDYYIHWVRQAPGQGLEWMGIIQPTGGGTTYAQKFQGRVTITADESTSTAYMELSSLRSEDTAVYYCARVGATVTKNYYYYYGMDVWGQGTTVTVSS
VL: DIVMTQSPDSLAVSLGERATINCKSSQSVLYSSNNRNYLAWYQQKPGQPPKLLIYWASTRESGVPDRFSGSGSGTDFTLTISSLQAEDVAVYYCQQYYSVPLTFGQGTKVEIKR
notes: IgG1, kappa
B2: Human ST2 IgG1 Antibody 103 (antibody, V domains shown)
VH: QVQLVQSGAEVKKPGASVKVSCKASGYTFTSYYMHWVRQAPGQGLEWMGWMNPNSGNTGYAQKFQGRVTMTRDTSTSTVYMELSSLRSEDTAVYYCARETSFDYYYGMDVWGQGTTVTVSS
VL: DIQMTQSPSSLSASVGDRVTITCRASQSISNWLAWYQQKPGKAPKLLIYDGSNLGTGVPSRFSGSGSGTDFTLTISSLQPEDFATYYCLQDFTYPLTFGGGTKVEIKR
notes: IgG1, kappa; also called ST2 Antibody 103
B3: Human ST2 IgG1 Antibody 104 (antibody, V domains shown)
VH: QVQLVQSGAEVKKPGSSVKVSCKASGYTFTNYAIIWVRQAPGQGLEWMGGIIPVFGTADYTQTFQGRVTITADESTSTAYMELSSLRSEDTAVYYCARVSTNYYDSSGYYAFDYWGQGTLVTVSS
VL: DIQMTQSPSSLSASVGDRVTITCRASQSISSYLNWYQQKPGKAPKLLIYDASSLQSGVPSRFSGSGSGTDFTLTISSLQPEDFATYYCQQTYHTPWTFGQGTKVEIKR
notes: IgG1, kappa
B4: Human ST2 IgG1 Antibody 105 (antibody, V domains shown)
VH: EVQLLESGGGLVQPGGSLRLSCAASGFTFSSYAMHWVRQAPGKGLEWVAVMSYDGRHEYYADSVKGRFTISRDNSKNTLYLQMNSLRAEDTAVYYCASTDYDIGGYSLPLDYWGQGTLVTVSS
VL: B3 VL with I29V, Y32W, N34A, D50A, S53N, T91S, H93D, T94V, K103R, V104L
notes: IgG1, kappa
B5: Human ST2 IgG1 Antibody 108 (antibody, V domains shown)
VH: QVQLVQSGAEVKKPGASVKVSCKASGNTFTAYYMHWVRQAPGQGLEWMGIINPSGGSTSYAQKFQGRVTMTRDTSTSTVYMELSSLRSEDTAVYYCARGVGATNYWGQGTLVTVSS
VL: B3 VL with S28G, S31N, Y32N, D50A, T91G, Y92F, H93N, T94F, W96L, Q100G
notes: IgG1, kappa; also called ST2 Antibody 108
B6: Human ST2 IgG1 Antibody 107 (antibody, V domains shown)
VH: QVQLVQSGAQVKKPGASVKVSCKASGGTFSSYTISWVRQAPGQGLEWMGVIYPSGDITVYAQEFQGRVTMTRDTSTSTVYMELSSLRSEDTAVYYCARAWARYFDYWGQGTLVTVSS
VL: DIQMTQSPSSLSASVGDRVTITCQASQDISNYLNWYQQKPGKAPKLLIYDASNLQAGVPSRFSGSGSGTDFTLTISSLQPEDFATYYCQQSYSSPITFGQGTRLEIKR
notes: IgG1, kappa
B7: Human ST2 IgG1 Antibody 106 (antibody, V domains shown)
VH: QVQLVQSGAEVKKPGSSVKVSCKASGYTFTDYYIHWVRQAPGQGLEWMGGIIPIYGTANYAQKFQGRVTITADESTSTAYMELSSLRSEDTAVYYCARTNWGMDVWGQGTTVTVSS
VL: EIVMTQSPATLSVSPGERATLSCRASQGIPSNSLAWYQQKPGQAPRLLIYGTSARASGIPARFSGSGSGTEFTLTISSLQSEDFAVYYCQQYYSTPWTFGQGTKVEIKR
notes: IgG1, kappa

One test deals with T1, Mouse ST2 (mouse, UniProt P14719 27-332, limits assumed).
T1 construct: also called mouse ST2 protein
T1 sequence (looked up): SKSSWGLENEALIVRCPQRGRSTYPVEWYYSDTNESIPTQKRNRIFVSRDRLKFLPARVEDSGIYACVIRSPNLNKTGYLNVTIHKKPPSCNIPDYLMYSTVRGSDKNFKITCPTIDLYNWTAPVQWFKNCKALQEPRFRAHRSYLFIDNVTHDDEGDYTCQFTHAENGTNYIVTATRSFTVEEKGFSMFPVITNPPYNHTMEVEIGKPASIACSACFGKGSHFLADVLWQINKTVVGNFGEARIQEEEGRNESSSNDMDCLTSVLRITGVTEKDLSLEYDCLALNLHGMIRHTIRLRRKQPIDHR
In words: SPR (Carterra), antibody immobilized, ST2 analyte, 1:1. The procedure:
(§1) Binding of the reformatted human ST2 antibodies to the human and mouse ST2 proteins was evaluated by surface plasmon resonance (SPR), using a high throughput antibody screening and characterization platform from Carterra (Salt Lake City, Utah).
For the molecule B1, the affinity, expressed as Kd, was 1.1 nM; the koff is 0.0013 s⁻¹; the kon is 1.1e+06 M⁻¹ s⁻¹.

B2: the Kd came to 211 nM, the koff was 0.0058 s⁻¹ and the kon turned out to be 27000 M⁻¹ s⁻¹.

B3 displayed a Kd of 684 nM, a koff of 0.096 s⁻¹ and a kon of 140000 M⁻¹ s⁻¹.

Turning to B4, binding was characterised by a dissociation constant (Kd) of 172 nM, the koff came out at 0.07 s⁻¹ and the kon turned out to be 410000 M⁻¹ s⁻¹.

The target of another test is T2, Human ST2 (human, UniProt Q01638 19-328, limits assumed).
T2 construct: also called human ST2 protein; Interleukin 1 receptor-like 1
T2 sequence (looked up): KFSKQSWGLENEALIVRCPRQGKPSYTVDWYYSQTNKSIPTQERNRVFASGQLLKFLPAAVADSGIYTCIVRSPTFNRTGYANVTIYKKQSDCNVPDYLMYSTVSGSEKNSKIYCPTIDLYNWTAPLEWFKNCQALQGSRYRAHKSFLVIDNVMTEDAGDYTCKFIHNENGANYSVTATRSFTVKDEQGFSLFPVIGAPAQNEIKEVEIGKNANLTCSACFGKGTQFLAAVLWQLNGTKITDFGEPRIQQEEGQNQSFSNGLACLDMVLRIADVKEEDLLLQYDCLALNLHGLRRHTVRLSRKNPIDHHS
The test is described as above. On the procedure:
as §1
B1 showed a Kd of 10 nM, a koff of 0.0061 s⁻¹ and a kon of 600000 M⁻¹ s⁻¹.

The molecule B2 had a Kd of 140 nM, a koff of 0.0063 s⁻¹ and a kon of 45000 M⁻¹ s⁻¹.

Turning to B3, the Kd was found to be 121 nM, the koff came to 0.061 s⁻¹ and the kon came out at 510000 M⁻¹ s⁻¹.

On to B4, for which the Kd turned out to be 256 nM, the koff was 0.095 s⁻¹ and the kon came out at 370000 M⁻¹ s⁻¹.

As for B5, the affinity, expressed as Kd, was 28 nM; the koff is 0.0056 s⁻¹; the kon came to 200000 M⁻¹ s⁻¹.

On to B6, for which the Kd was 465 nM, the koff came out at 0.062 s⁻¹ and the kon amounted to 130000 M⁻¹ s⁻¹.

Take B7: the Kd was 616 nM, the koff was 0.15 s⁻¹ and the kon was 240000 M⁻¹ s⁻¹.
